Test results published in patent US20250000946A1 (WUXI BIOLOGICS IRELAND, published 2025).
Where two headings read alike, the source gives them in different places.

Experiments:
[1] = biological target: T1, Human IL-2Rβ/γ (intermediate affinity IL-2 receptor) (human, UniProt P14784 27-551; P31785 23-369); assay: FACS, HH cells; EC50 fold vs T2U0.E44-1
T1 construct: whole, on cells; also called IL-2Rβ/γc; IL-2Rβ (CD122) and γ (CD132)
T1 sequence (looked up) 1: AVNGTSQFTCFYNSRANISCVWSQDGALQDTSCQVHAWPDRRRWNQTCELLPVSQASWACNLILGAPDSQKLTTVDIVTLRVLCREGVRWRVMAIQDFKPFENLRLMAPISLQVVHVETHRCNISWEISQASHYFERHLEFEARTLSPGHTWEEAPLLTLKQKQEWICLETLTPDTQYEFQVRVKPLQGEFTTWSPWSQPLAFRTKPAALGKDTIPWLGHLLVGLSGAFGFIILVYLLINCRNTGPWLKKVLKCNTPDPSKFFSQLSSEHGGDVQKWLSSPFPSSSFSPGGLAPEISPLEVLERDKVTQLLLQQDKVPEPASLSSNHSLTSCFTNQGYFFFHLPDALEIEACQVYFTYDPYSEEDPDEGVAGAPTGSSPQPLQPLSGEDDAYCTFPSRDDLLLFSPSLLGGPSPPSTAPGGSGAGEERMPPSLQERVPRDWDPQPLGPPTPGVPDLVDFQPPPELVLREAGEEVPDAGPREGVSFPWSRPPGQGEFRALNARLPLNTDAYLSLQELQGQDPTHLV
T1 sequence (looked up) 2: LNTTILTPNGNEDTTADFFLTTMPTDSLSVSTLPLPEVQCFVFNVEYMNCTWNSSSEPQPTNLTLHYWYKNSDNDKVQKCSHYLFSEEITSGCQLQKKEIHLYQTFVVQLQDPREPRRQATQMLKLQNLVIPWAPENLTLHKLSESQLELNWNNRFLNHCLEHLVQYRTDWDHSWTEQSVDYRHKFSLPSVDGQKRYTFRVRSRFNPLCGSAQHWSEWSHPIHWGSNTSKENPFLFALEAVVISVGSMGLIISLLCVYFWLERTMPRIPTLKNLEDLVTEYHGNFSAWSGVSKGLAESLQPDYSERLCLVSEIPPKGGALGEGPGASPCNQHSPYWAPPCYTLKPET
Protocol: (§1) Human cutaneous T cell lymphoma HH cells, malignant non-Hodgkin's lymphoma NK92 cells and cutaneous T cell lymphoma MJ20 cells were used for binding assay. They both constitutively express IL-2Rβ (CD122) and […] (CD132), and NK92 and MJ20 also expresses IL-2Rα (CD25). HH, NK92 and MJ20 cells were cultured following ATCC guidance, then transferred to a 96-plate for binding analysis. Cells were incubated with IL-2/Fc fusion proteins at the indicated concentrations for 30 min at 4° C. to avoid internalization. Binding was detected by 2nd antibody of PE-anti-human Fc at 4° C. for another 30 min. The median fluorescence intensity (MFI) on HH and NK92 cells was measured using FACS.
(§2) IL-2 variants of T2U0.E44-6 and T2U0.E44-26 were used to construct bivalent variants W3XX115-T2.Z20-1.uIgG4V322 and W3XX115-T2.Z20-2.uIgG4V322 respectively.

[2] = biological target: T1, Human IL-2Rβ/γ (intermediate affinity …); assay: FACS, HH cells
Protocol: as §1, §2

[3] = biological target: T2, W3XX115-hPro1.ECD.His, IL2Rα ECD (Homo sapiens (Human), UniProt P01589 22-213); assay: SPR Biacore 8K; variant captured on anti-human Fc chip, IL-2Rα ECD-His injected
T2 construct: Entry includes the C-terminal 6xHis tag; also called CD25
T2 sequence: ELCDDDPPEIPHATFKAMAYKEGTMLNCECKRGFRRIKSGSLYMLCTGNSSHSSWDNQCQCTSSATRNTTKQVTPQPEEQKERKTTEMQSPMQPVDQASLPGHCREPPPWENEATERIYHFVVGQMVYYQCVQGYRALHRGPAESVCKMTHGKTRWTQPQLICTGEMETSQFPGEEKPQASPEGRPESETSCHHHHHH
Protocol: (§3) IL-2 variants binding affinity to IL-2 receptor were detected by SPR using Biacore 8K. For IL-2Rα binding assay, each variant was captured on anti-human Fc immobilized CM5 sensor chip (cytiva). W3XX115-hPro1.ECD.His at different concentrations were injected over the sensor chip at a flow rate of 30 uL/min for an association phase of 60 s, followed by 90 s dissociation. The chip was then regenerated by 10 mM Glycine-HCl pH1.5 after each binding cycle. For IL-2Rγ binding assay, IL-2 variants were mixed with W369-hPro2.ECD.His as 1:1 before assay, were detected by SPR using Biacore 8K. W3XX115-hPro1.ECD.His was captured on anti-His immobilized CM5 sensor chip (cytiva). The mixture were injected over the sensor chip as described above. The sensorgrams of blank surface and buffer channel were subtracted from the test sensorgrams. The experimental data was fitted by steady state affinity model. Molecular weight of W3XX115-hPro1.ECD.His or W369-hPro1.ECD.His was used to calculate the molar concentration of analyte.
(§4) For T3U0.E44-1 and T2U0.E44-33, no binding to IL-2Rα was detected.

[4] = biological target: T3, W369-hPro1.ECD.His, IL-2Rγ ECD (human, UniProt P31785 23-254); assay: SPR Biacore 8K; variant pre-mixed 1:1 with IL-2Rβ ECD-His, injected over captured IL-2Rγ ECD-His
T3 construct: Entry includes linker and C-terminal 6xHis tag; also called IL-2Rγc; CD132
T3 sequence: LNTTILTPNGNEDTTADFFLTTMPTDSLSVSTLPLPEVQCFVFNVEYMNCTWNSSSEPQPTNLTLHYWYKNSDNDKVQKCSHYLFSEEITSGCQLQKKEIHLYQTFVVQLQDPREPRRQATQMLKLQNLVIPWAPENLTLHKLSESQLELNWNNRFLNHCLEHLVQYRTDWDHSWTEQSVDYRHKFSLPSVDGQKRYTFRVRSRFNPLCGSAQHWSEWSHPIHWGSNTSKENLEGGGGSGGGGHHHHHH
Protocol: as §3, §4

[5] = biological target: T4, W369-hPro2.ECD.His, IL2Rβ ECD (human, UniProt P14784 27-239); assay: SPR Biacore 8K; set-up for IL-2Rβ not described
T4 construct: Entry includes linker and C-terminal 6xHis tag; also called CD122
T4 sequence: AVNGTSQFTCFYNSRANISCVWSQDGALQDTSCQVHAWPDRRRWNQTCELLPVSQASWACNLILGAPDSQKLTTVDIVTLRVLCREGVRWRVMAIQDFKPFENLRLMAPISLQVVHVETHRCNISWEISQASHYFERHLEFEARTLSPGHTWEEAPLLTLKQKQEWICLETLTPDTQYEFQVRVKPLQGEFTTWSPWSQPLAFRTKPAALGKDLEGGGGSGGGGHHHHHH

[6] = biological target: T1, Human IL-2Rβ/γ (intermediate affinity …); assay: cell-based or functional assay
[7] = biological target: T1, Human IL-2Rβ/γ (intermediate affinity …); assay: FACS, HH cells; EC50 fold vs T2U0.E44-1; remark: listed apart in the source
How it was run: (§5)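 IL-2/Fc fusion proteins were incubated with cells for 30 min at 4° C. to prevent internalization, then bound protein was detected with PE-anti-human Fc for 30 min at 4° C. Median fluorescence intensity was read by FACS. HH cells express IL-2Rβ and γ; NK92 and MJ20 also express IL-2Rα.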

[8] = biological target: T1, Human IL-2Rβ/γ (intermediate affinity …); assay: cell-based or functional assay; remark: listed apart in the source
[9] = biological target: T1, Human IL-2Rβ/γ (intermediate affinity …); assay: FACS, HH cells; remark: listed apart in the source
How it was run: as §5

B1: W3XX115-T3U0.E44-1.uIgG4V322 (Fc fusion)
chain: APTSSSTKKTQLQLEHLLLDLQMILNGINNYKNPKLTRMLTAKFAMPKKATELKHLQCLEEELKPLEEVLNGAQSKNFHLRPRDLISNINVIVLELKGSETTFMCEYADETATIVEFLNRWITFCQSIISTLTESKYGPPCPPCPAPEAAGGPSVFLFPPKPKDTLMISRTPEVTCVVVDVSQEDPEVQFNWYVDGVEVHNAKTKPREEQFNSTYRVVSVLTVLHQDWLNGKEYKCKVSNKGLPSSIEKTISKAKGQPREPQVYTLPPCQEEMTKNQVSLWCLVKGFYPSDIAVEWESNGQPENNYKTTPPVLDSDGSFFLYSRLTVDKSRWQEGNVFSCSVMHEALHNHYTQKSLSLSLG
heavy: EIQLQQSGPELVKPGASVKVSCKASGYSFTDYNMYWVKQSHGESLEWIGYIDPYNGGTRYNQKFKGKATLTVDKSSSTAFMHLNSLTSEDSAVYYCARNGHWDGAWFAYWGQGTLVTVSAASTKGPSVFPLAPCSRSTSESTAALGCLVKDYFPEPVTVSWNSGALTSGVHTFPAVLQSSGLYSLSSVVTVPSSSLGTKTYTCNVDHKPSNTKVDKRVESKYGPPCPPCPAPEAAGGPSVFLFPPKPKDTLMISRTPEVTCVVVDVSQEDPEVQFNWYVDGVEVHNAKTKPREEQFNSTYRVVSVLTVLHQDWLNGKEYKCKVSNKGLPSSIEKTISKAKGQPREPQVCTLPPSQEEMTKNQVSLSCAVKGFYPSDIAVEWESNGQPENNYKTTPPVLDSDGSFFLVSRLTVDKSRWQEGNVFSCSVMHEALHNHYTQKSLSLSLG
light: DIQMNQSPSSLSASLGDTITITCHASQNINVWLSWYQQKPGNIPKLLIYKASNLHTGVPSRFSGSRSGTGFTLTISSLQPEDIATYYCHQGQSYPFTFGSGTKLEIKRTVAAPSVFIFPPSDEQLKSGTASVVCLLNNFYPREAKVQWKVDNALQSGNSQESVTEQDSKDSTYSLSSTLTLSKADYEKHKVYACEVTHQGLSSPVTKSFNRGEC
notes: E44 format, IgG4 FALA; also called non-α IL-2
In the case of B1, the Affinity reduction [1] is reported as 0.9 fold, the EC50 [2] is reported as 29.3 nM and the binding result [3] is reported as “no binding”. For the same binder, the binding result [4] was “binds”, the Kd [5] was 2260 nM and the “Potency EC50, STAT5 phosphorylation in CD8+ T (column headed Human Treg)” value [6] was 11.7 nM. For the same binder, the “Potency reduction, CD8+ T (column headed Human Treg)” value [6] was 1 fold, the Affinity reduction [7] was 1.3 fold and the “Human CD8+ T Potency EC50 (STAT5 phosphorylation)” value [8] was 7.87 nM. The “Human CD8+ T Potency reduction” value [8] was 2.2 fold and the EC50 [9] was 64.1 nM.
